In US6548060 (dated 2003):

Tests used:
[1] = biological target: ASK1 (apoptosis signal-regulating kinase), full-length (UniProt Q99683); experiment: cell-based or functional assay
[2] = biological target: T1, ASK1 (apoptosis signal-regulating kinase), full-length, Q99683
T1 chain: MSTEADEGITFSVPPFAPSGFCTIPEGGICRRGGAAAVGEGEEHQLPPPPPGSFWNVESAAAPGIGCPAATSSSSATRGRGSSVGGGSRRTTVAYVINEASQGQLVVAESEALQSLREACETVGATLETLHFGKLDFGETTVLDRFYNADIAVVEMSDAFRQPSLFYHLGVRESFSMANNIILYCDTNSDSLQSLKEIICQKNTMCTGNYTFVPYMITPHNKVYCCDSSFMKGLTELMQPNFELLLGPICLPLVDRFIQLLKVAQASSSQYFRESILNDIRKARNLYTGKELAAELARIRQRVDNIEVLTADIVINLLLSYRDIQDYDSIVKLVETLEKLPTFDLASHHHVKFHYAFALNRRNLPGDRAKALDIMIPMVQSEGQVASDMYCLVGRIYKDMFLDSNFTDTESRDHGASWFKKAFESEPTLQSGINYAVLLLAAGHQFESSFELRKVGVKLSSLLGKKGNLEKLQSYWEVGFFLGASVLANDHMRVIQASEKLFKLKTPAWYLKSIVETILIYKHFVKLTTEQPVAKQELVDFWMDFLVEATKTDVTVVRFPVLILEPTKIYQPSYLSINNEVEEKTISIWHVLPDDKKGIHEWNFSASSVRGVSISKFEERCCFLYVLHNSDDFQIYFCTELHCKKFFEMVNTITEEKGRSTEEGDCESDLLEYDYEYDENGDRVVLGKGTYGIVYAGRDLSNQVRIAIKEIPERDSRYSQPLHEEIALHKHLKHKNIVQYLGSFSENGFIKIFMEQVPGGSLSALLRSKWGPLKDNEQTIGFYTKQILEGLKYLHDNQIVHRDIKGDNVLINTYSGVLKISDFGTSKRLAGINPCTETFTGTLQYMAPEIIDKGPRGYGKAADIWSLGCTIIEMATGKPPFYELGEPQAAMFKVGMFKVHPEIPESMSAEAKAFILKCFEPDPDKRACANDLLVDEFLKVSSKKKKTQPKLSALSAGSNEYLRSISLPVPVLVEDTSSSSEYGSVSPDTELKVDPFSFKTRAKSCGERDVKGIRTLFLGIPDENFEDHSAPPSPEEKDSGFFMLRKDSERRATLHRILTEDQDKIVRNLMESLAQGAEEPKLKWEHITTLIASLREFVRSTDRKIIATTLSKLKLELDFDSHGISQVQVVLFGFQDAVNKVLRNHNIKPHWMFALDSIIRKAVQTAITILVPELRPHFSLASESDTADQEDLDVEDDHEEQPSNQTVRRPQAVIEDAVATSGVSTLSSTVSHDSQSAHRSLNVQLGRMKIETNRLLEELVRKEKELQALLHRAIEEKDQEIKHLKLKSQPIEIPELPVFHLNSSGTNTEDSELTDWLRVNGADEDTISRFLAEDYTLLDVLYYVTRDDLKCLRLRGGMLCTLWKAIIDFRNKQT

[3] = biological target: T2, N-terminal 236 aa extension of human glutaminyl-tRNA synthetase, P47897
T2 chain: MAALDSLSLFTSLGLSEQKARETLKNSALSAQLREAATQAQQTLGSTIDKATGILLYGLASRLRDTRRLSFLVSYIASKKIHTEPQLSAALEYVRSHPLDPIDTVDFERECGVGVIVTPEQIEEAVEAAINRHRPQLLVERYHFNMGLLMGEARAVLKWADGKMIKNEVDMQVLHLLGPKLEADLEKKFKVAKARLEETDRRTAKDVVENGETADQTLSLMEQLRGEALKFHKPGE

[4] = biological target: constitutive active mutant of Daxx, C-terminal 242 aa, Q9UER7
Sequence of constitutive active mutant of Daxx, C-terminal 242 aa, Q9UER7 (Q9UER7 whole entry, looked up, change not shown): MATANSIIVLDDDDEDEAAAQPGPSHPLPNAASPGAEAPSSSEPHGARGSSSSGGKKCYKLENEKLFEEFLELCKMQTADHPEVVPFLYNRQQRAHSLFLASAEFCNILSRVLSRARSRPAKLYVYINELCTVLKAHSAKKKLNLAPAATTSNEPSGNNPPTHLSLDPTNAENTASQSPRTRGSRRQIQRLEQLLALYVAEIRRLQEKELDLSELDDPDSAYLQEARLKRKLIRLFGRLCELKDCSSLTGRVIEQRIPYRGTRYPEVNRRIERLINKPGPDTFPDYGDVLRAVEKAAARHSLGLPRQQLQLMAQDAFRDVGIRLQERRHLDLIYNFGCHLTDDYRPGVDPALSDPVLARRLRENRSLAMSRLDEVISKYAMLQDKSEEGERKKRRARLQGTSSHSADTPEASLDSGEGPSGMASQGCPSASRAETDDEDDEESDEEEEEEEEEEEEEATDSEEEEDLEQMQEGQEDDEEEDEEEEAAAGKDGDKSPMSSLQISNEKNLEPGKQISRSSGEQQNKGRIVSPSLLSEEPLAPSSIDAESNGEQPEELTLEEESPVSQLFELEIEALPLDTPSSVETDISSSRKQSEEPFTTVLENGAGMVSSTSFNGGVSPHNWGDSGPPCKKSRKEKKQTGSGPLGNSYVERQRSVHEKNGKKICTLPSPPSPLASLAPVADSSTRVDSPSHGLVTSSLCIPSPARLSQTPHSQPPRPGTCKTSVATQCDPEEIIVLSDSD

constitutive active mutant of Daxx, C-terminal 242 aa (from UniProt Q9UER7 499-740)
apoptotic cells (HeLa, beta-galactosidase co-transfection, apoptotic morphology) [1]: 11%

B1: human glutaminyl-tRNA synthetase, full-length (protein)
chain: MAALDSLSLFTSLGLSEQKARETLKNSALSAQLREAATQAQQTLGSTIDKATGILLYGLASRLRDTRRLSFLVSYIASKKIHTEPQLSAALEYVRSHPLDPIDTVDFERECGVGVIVTPEQIEEAVEAAINRHRPQLLVERYHFNMGLLMGEARAVLKWADGKMIKNEVDMQVLHLLGPKLEADLEKKFKVAKARLEETDRRTAKDVVENGETADQTLSLMEQLRGEALKFHKPGENYKTPGYVVTPHTMNLLKQHLEITGGQVRTRFPPEPNGILHIGHAKAINFNFGYAKANNGICFLRFDDTNPEKEEAKFFTAICDMVAWLGYTPYKVTYASDYFDQLYAWAVELIRRGLAYVCHQRGEELKGHNTLPSPWRDRPMEESLLLFEAMRKGKFSEGEATLRMKLVMEDGKMDPVAYRVKYTPHHRTGDKWCIYPTYDYTHCLCDSIEHITHSLCTKEFQARRSSYFWLCNALDVYCPVQWEYGRLNLHYAVVSKRKILQLVATGAVRDWDDPRLFTLTALRRRGFPPEAINNFCARVGVTVAQTTMEPHLLEACVRDVLNDTAPRAMAVLESLRVIITNFPAAKSLDIQVPNFPADETKGFHQVPFAPIVFIERTDFKEEPEPGFKRLAWGQPVGLRHTGYVIELQHVVKGPSGCVESLEVTCRRADAGEKPKAFIHWVSQPLMCEVRLYERLFQHKNPEDPTEVPGGFLSDLNLASLHVVDAALVDCSVALAKPFDKFQFERLGYFSVDPDSHQGKLVFNRTVTLKEDPGKV
ASK1 kinase activity enhanced by Daxx-CA (GST-SEK1 as substrate) [2]: QRS inhibited the ASK1 activity enhanced by Daxx | kinase activity of ASK1 (MBP phosphorylation, immunocomplex kinase assay) [2]: The ASK1 activity was inhibited by the expression of QRS-F and -C but not of QRS -N

B2: ASK1 (apoptosis signal-regulating kinase), full-length (protein)
chain: MSTEADEGITFSVPPFAPSGFCTIPEGGICRRGGAAAVGEGEEHQLPPPPPGSFWNVESAAAPGIGCPAATSSSSATRGRGSSVGGGSRRTTVAYVINEASQGQLVVAESEALQSLREACETVGATLETLHFGKLDFGETTVLDRFYNADIAVVEMSDAFRQPSLFYHLGVRESFSMANNIILYCDTNSDSLQSLKEIICQKNTMCTGNYTFVPYMITPHNKVYCCDSSFMKGLTELMQPNFELLLGPICLPLVDRFIQLLKVAQASSSQYFRESILNDIRKARNLYTGKELAAELARIRQRVDNIEVLTADIVINLLLSYRDIQDYDSIVKLVETLEKLPTFDLASHHHVKFHYAFALNRRNLPGDRAKALDIMIPMVQSEGQVASDMYCLVGRIYKDMFLDSNFTDTESRDHGASWFKKAFESEPTLQSGINYAVLLLAAGHQFESSFELRKVGVKLSSLLGKKGNLEKLQSYWEVGFFLGASVLANDHMRVIQASEKLFKLKTPAWYLKSIVETILIYKHFVKLTTEQPVAKQELVDFWMDFLVEATKTDVTVVRFPVLILEPTKIYQPSYLSINNEVEEKTISIWHVLPDDKKGIHEWNFSASSVRGVSISKFEERCCFLYVLHNSDDFQIYFCTELHCKKFFEMVNTITEEKGRSTEEGDCESDLLEYDYEYDENGDRVVLGKGTYGIVYAGRDLSNQVRIAIKEIPERDSRYSQPLHEEIALHKHLKHKNIVQYLGSFSENGFIKIFMEQVPGGSLSALLRSKWGPLKDNEQTIGFYTKQILEGLKYLHDNQIVHRDIKGDNVLINTYSGVLKISDFGTSKRLAGINPCTETFTGTLQYMAPEIIDKGPRGYGKAADIWSLGCTIIEMATGKPPFYELGEPQAAMFKVGMFKVHPEIPESMSAEAKAFILKCFEPDPDKRACANDLLVDEFLKVSSKKKKTQPKLSALSAGSNEYLRSISLPVPVLVEDTSSSSEYGSVSPDTELKVDPFSFKTRAKSCGERDVKGIRTLFLGIPDENFEDHSAPPSPEEKDSGFFMLRKDSERRATLHRILTEDQDKIVRNLMESLAQGAEEPKLKWEHITTLIASLREFVRSTDRKIIATTLSKLKLELDFDSHGISQVQVVLFGFQDAVNKVLRNHNIKPHWMFALDSIIRKAVQTAITILVPELRPHFSLASESDTADQEDLDVEDDHEEQPSNQTVRRPQAVIEDAVATSGVSTLSSTVSHDSQSAHRSLNVQLGRMKIETNRLLEELVRKEKELQALLHRAIEEKDQEIKHLKLKSQPIEIPELPVFHLNSSGTNTEDSELTDWLRVNGADEDTISRFLAEDYTLLDVLYYVTRDDLKCLRLRGGMLCTLWKAIIDFRNKQT
kinase activity of ASK1 (MBP phosphorylation, immunocomplex kinase assay) [3]: The ASK1 activity was inhibited by the expression of QRS-F and -C but not of QRS -N | ASK1 kinase activity (GST-SEK1 as substrate) [4]: The active mutant of Daxx (Daxx-CA) activated ASK1

B3: C-terminal 539 aa catalytic domain of human glutaminyl-tRNA synthetase (protein)
chain: NYKTPGYVVTPHTMNLLKQHLEITGGQVRTRFPPEPNGILHIGHAKAINFNFGYAKANNGICFLRFDDTNPEKEEAKFFTAICDMVAWLGYTPYKVTYASDYFDQLYAWAVELIRRGLAYVCHQRGEELKGHNTLPSPWRDRPMEESLLLFEAMRKGKFSEGEATLRMKLVMEDGKMDPVAYRVKYTPHHRTGDKWCIYPTYDYTHCLCDSIEHITHSLCTKEFQARRSSYFWLCNALDVYCPVQWEYGRLNLHYAVVSKRKILQLVATGAVRDWDDPRLFTLTALRRRGFPPEAINNFCARVGVTVAQTTMEPHLLEACVRDVLNDTAPRAMAVLESLRVIITNFPAAKSLDIQVPNFPADETKGFHQVPFAPIVFIERTDFKEEPEPGFKRLAWGQPVGLRHTGYVIELQHVVKGPSGCVESLEVTCRRADAGEKPKAFIHWVSQPLMCEVRLYERLFQHKNPEDPTEVPGGFLSDLNLASLHVVDAALVDCSVALAKPFDKFQFERLGYFSVDPDSHQGKLVFNRTVTLKEDPGKV
kinase activity of ASK1 (MBP phosphorylation, immunocomplex kinase assay) [2]: The ASK1 activity was inhibited by the expression of QRS-F and -C but not of QRS -N
